Experiments:
[1] = substrate: O=C(O)c1cc(=O)[nH]c(=O)n1[C@@H]1O[C@H](COP(=O)(O)O)[C@@H](O)[C@H]1O; test: purified protein; format: biochemical, Methanothermobacter thermautotrophicus; settings: 25 °C, pH 7.1, 10 mM MOPS, I = 0.1 (NaCl)
[2] = substrate: O=C(O)c1cc(=O)[nH]c(=O)n1[C@@H]1O[C@H](COP(=O)(O)O)[C@@H](O)[C@H]1O; test: purified protein; format: biochemical, Saccharomyces cerevisiae; settings: 25 °C, pH 7.1, 10 mM MOPS, I = 0.1 (NaCl)

Protein | Km [1] [µM] | kcat [1] [s⁻¹] | kcat/Km [1] [M⁻¹ s⁻¹] | Km [2] [µM] | kcat [2] [s⁻¹] | kcat/Km [2] [M⁻¹ s⁻¹]
MtOMPDC (wildtype OMPDC from Methanothermobacter thermautotrophicus) (Methanothermobacter thermautotrophicus str. Delta H) (protein) MRSRRVDVMDVMNRLILAMDLMNRDDALRVTGEVREYIDTVKIGYPLVLSEGMDIIAEFRKRFGCRIIADFKVADIPETNEKICRATFKAGADAIIVHGFRGADSVRACLNVAEEMGREVFLLTEMSHPGAEMFIQGAADEIARMGVDLGVKNYVGPSTRPERLSRLREIIGQDSFLISPGVGAQGGDPGETLRFADAIIVGRSIYLADNPAAAAAGIIESIKDLLNP | 1.5 ± 0.2 | 4.7 ± 0.3 | 3.1e+06 ± 300000 |  |  | 
ScOMPDC (C155S mutant OMPDC from Saccharomyces cerevisiae) (Saccharomyces cerevisiae S288C; C155S) (protein) MSKATYKERAATHPSPVAAKLFNIMHEKQTNLCASLDVRTTKELLELVEALGPKICLLKTHVDILTDFSMEGTVKPLKALSAKYNFLLFEDRKFADIGNTVKLQYSAGVYRIAEWADITNAHGVVGPGIVSGLKQAAEEVTKEPRGLLMLAELSSKGSLATGEYTKGTVDIAKSDKDFVIGFIAQRDMGGRDEGYDWLIMTPGVGLDDKGDALGQQYRTVDDVVSTGSDIIIVGRGLFAKGRDAKVEGERYRKAGWEAYLRRCGQQN |  |  |  | 1.4 ± 0.2 | 15 ± 1 | 1.1e+07 ± 1e+06

— paper PMC2754381
